How the values were obtained:
Assay type in all cases: cell-based
p56^lck = test: Tyrosine kinase phosphorylation in COS-7/M6 transformants and MEFs (immunoblot); details: only in the cells expressing both CD74 and full-length CD44
Method: Cells then were harvested and lysed in buffer containing 50 mM Hepes, pH7.5, 150 mM NaCl, 1.5 mM MgCl2, 1 mM EGTA, 1% Glycerol and 1% Triton X-100, and freshly added phosphatase and proteinase inhibitors (1 mM orthovanandate, 10 mM NaF, 10 μg/ml leupeptin, 25 μg/ml aprotinin and 50 μg/ml PMSF). For immunoblotting, 15-20 μg of cell lysate proteins were separated by 10% SDS-PAGE and transferred to PVDF Immobilon-P transfer membranes (Millipore). The blots were developed with specific primary antibodies that included a pair of anti-phospho-ERK-1/2 (sc-7383, Santa Cruz) and anti-(total) ERK-1/2 (sc-94, Santa Cruz) antibodies, a pair of anti-phospho-p56^lck (Cell Signaling) and anti-(total) p56^lck (sc-433, Santa Cruz) antibodies, or a pair of anti-phospho-Src and anti-(total) Src antibodies (Cell Signaling). The secondary antibodies included anti-mouse IgG or anti-rabbit IgG conjugated with horseradish peroxidase (Cell Signaling). The ECL detection reagents (Amersham) were used to visualize bands.

[1] = tested on: human K562 progenitor cell line; test: K562 terminal erythropoietic differentiation (DAF stain) and hemoglobin content
Method: The neutralizing anti-MIF mAb was added at 100 μg/ml. DAF positive cells were enumerated and expressed as fold-change over total, input cells. FIG. 2B: cellular hemoglobin content of cultured K562 progenitor cells. […] Each value represents the mean±SD of at least three different experiments. *P<0.01 versus corresponding controls.
(§1) The human K562 progenitor cell line (ATCC, CCL-243) was cultured in RPMI/10% FBS supplemented with penicillin and streptomycin. For differentiation, sodium butyrate (AldRick, Milwaukee, Wis.) was added in the medium (Witt et al. 2000. Blood 95:2391-2396). Terminal erythropoietic differentiation was measured as described by McGukin et al. (McGuckin et al. 2003. European Journal of Haematology 70:106-114) and positive cells enumerated after staining with 2,7-diaminofluorene (Sigma, St. Louis, Mo.). To quantify hemoglobin synthesis, the cells were centrifuged and washed in PBS, and the cell pellet resuspended in lysis buffer (100 mM potassium phosphate pH 7.8, 0.2% Triton X-100) before disruption by aspiration through a 21-gauge needle. After microcentrifugation, the supernatant was collected and the hemoglobin concentration was determined using the hemoglobin kit from Sigma. Cell viability was assessed by trypan blue dye exclusion and found to be equivalent (85-90% viability) between all samples studied.

Src = test: Tyrosine kinase phosphorylation in COS-7/M6 transformants and MEFs (immunoblot); details: COS-7 transformants and MEFs
Excerpt: Two members of the non-receptor, protein tyrosine kinase family, p56^lck and c-Src (Src), may physically associate with the intracytoplasmic domain of CD44 (Elaimin I. Taher (1996). J. Biol. Chem. 271:2863-2867 and Bourguignon et al. (2001). J. Biol. Chem. 276:7327-7336), and either kinase may lead to downstream ERK1/2 phosphorylation via a Ras-Raf-MEK-dependent pathway (Ishida et al. (1998). Circ Res 82:7-12; Migliaccio et al. (2000). EMBO J. 19:5406-5417; and Mahabeleshwar et al. (2003). J. Biol. Chem. 278:52598-52612). […] The level of p56^lck phosphorylation appeared less in the MEFs than in the COS-7 cells, which may be attributed to the lower level of expression of the p56^lck kinase in cells of fibroblast lineage (Oikawa et al. (2001). Immunol. 104:162-167), or to a higher activation and coupling efficiency of CD44 when over-expressed in COS-7 cells.
Signal Transduction Assays. […] The human CD74 ectodomain (CD74^73-232) was prepared recombinantly in soluble form (sCD74) as described previously (Leng et al. (2003). J Exp Med 197:1467-1476). […] Cells then were harvested and lysed in buffer containing 50 mM Hepes, pH7.5, 150 mM NaCl, 1.5 mM MgCl2, 1 mM EGTA, 1% Glycerol and 1% Triton X-100, and freshly added phosphatase and proteinase inhibitors (1 mM orthovanandate, 10 mM NaF, 10 μg/ml leupeptin, 25 μg/ml aprotinin and 50 μg/ml PMSF). […]

[2] = tested on: COS-7/CD74+CD44 cell line; test: In vitro apoptosis, caspase-3 activity, COS-7 cell lines; details: MIF 100 ng/ml; apoptosis inducers SNP and camptothecin, 24 hrs
Method: Apoptosis Studies. […] Cell lysates were collected, and caspase-3 activity analyzed using a colorimetric assay kit (R&D Systems). Cytoplasmic p53 content was analyzed as described previously (Mitchell et al. (2002). Proc Natl Acad Sci USA 99:345-350) by immunoblotting of mouse cytosolic fractions using a pair of anti-phospho-p53 (Ser15) (R&D Systems) and total anti-p53 antibodies (Cell Signaling); and for COS-7 cells, the anti-p53 (Ser15) and total anti-p53 antibodies (Cell Signaling). In vivo apoptosis studies followed the procedures of (Mitchell et al. (2002). Proc Natl Acad Sci USA 99:345-350), and were conducted after i.p injection of 15 mg/kg lipopolysaccharide (E. coli 0111:B4; Sigma). Mice were sacrificed 24 hrs after priming and the peritoneal macrophage cells collected and immediately analyzed for apoptosis by an ELISA that detects cytoplasmic oligonucleosomes (Roche Diagnostics). Primary macrophages also were immunostained by Alexa 488-conjugated, Annexin V (Invitrogen), and apoptotic cells enumerated by fluorescence microscopy.

erythroid progenitors = test: Cytotoxicity by Trypan blue exclusion
Method: as §1

[3] = tested on: Friend murine erythroleukemia (MEL) cell line; test: MEL cell cytodifferentiation and hemoglobin content
Method: The specificity of this effect was verified by the application of a neutralizing, anti-MIF mAb.
Erythroid Progenitor Cell Lines. The Friend murine erythroleukemia (MEL) cell line was cultured in Dulbecco's modified Eagle's medium supplemented with 10% FBS. Differentiation was induced with dimethyl sulfoxide differentiation medium for 4 days as described (Terada et al. 1977. Proc. Natl. Acad. Sci. USA 74:248-252). Hemoglobin synthesis was assessed by cyto-centrifugation onto glass slides followed by staining with benzidine (Worthington), and by the hemoglobin kit from Sigma.

PKA = test: Western analysis of kinase phosphorylation in COS-7/CD74+CD44 cells; details: 100 ng/ml for 10 minutes
Method: FIGS. 12A-12E show the phosphoserine content of CD74 and CD44 measured by ELISA. […] The ELISA values represent the mean±SD of triplicate measurements. Experiments were replicated twice. *P<0.02 versus corresponding control (Student's T test, two-tailed). […] Cell lysates were prepared and probed for PKA and PKC using phospho-specific, and total anti-PKA and anti-PKC antibodies.
Cell lysates were collected and analyzed by immunoblots using a pair of anti-phospho-PICA and anti-(total)-PKA antibodies, a pair of anti-phospho-PKC (all from Cell Signaling) and anti-(total)-PKC (Santa Cruz) antibodies, or a pair of anti-phospho-p56^lck (Cell Signaling) and anti-(total) p56^lck (sc-433, Santa Cruz) antibodies.

B1: MIF: macrophage migration inhibitory factor; recombinant mouse or human MIF purified essentially free of endotoxin (protein)
chain: PMFIVNTNVPRASVPDGFLSELTQQLAQATGKPPQYIAVHVVPDQLMAFGGSSEPCALCSLHSIGKIGGAQNRSYSKLLCGLLAERLRISPDRVYINYYDMNAANVGWNNSTFA
- p56^lck phosphorylation (p56^lck): phosphorylated by MIF treatment
- terminal erythropoietic differentiation (DAF stain) ([1]; MIF 200 ng/ml for 96 hrs): inhibited the terminal erythropoietic differentiation
- hemoglobin production ([1]; cellular hemoglobin content of cultured K562 progenitor cells): inhibition of cytodifferentiation and hemoglobin production
- Src phosphorylation (Src): An increase in the phosphorylation of the Src kinase was not detected
- protection from apoptosis [2]: significant protective effect
- cytotoxic effects (erythroid progenitors): Neither MIF nor anti-MIF were found to exert cytotoxic effects
- reduction of hemoglobin content ([3]; 20 ng/ml): 12%
- reduction of hemoglobin content ([3]; 100 ng/ml): 20%
- cytodifferentiation response (benzidine staining) ([3]; 200 ng/ml): decreased the cytodifferentiation response
- phosphorylation of PKA (PKA): MIF-dependent phosphorylation of PKA

Source: patent US20100143379A1 (priority 2005, published 2010)
